In patent US6713294B1, “DNA glycosylases and their use” (priority 1996, dated 2004):
Numbering of substitutions follows the chain as printed.

How the values were obtained:
[1] = tested on: ^3H-uracil released in uracil-DNA glycosylase assays; experiment: Uracil-DNA glycosylase activity after coupled transcription/translation in rabbit reticulocyte lysates; type: biochemical
Method: In vitro transcription/translation was performed with the TNT® transcription/translation system with […] as recommended by the manufacturer, using 200 ng of the expression constructs per 10 μl reaction volume. The mouse UNG1-pBluescript® construct was transcribed from the T3 promoter in the pBluescript® vector. The insert of mouse UNG2-pBluescript® was amplified by the polymerase chain reaction using Dynazyme® PCR kit, ligated into the pGEM-T vector and transcribed from the T7 promoter. […] Human UNG1 CDNA was transcribed from the T7 promoter as previously described (Slupphaug et al., 1995, Biochemistry, 34, p128-138). The samples were run on a 12% denaturing sodium dodecyl sulfate polyacrylamide gel (SDS-PAGE). The gel was dried, autoradiographed overnight and scanned on an LKB Ultroscan XL Enhanced Laser Densitometer. Uracil-DNA glycosylase activity was measured in parallel samples of the in vitro transcription/translation assay mixture containing unlabelled amino acids (Slupphaug et al., 1995, supra). A construct containing both promoters (pGL2-ProAB) linked to the luciferase gene was prepared by insertion of a PvuII/MluI fragment (the enzymes cleave in positions 418 and 1035, respectively) from the promoter region of the UNG gene into the SmaI-MluI sites of pGL2-ProB. […]

[2] = tested on: Escherichia coli DH5α (recA^−); experiment: Cytotoxicity in recA- background; type: cell-based; settings: E. coli DH5α, even without induction; data not shown
[3] = tested on: [^3H]cytosine-labelled DNA; experiment: Kinetic parameters on cytosine substrate; type: biochemical; settings: for Kcat: calculated from Vmax assuming Mr=25000
Method: (§1) To test enzymatic substrate specificities, 250 ng purified human “wild type” UDG (UNGΔ84), UNGΔ84Tyr147Ala or UNGΔ84Asn204Asp, were mixed with 200 ng ds- or ss-[^3H]cytosine-labelled DNA (150 mCi/mmol), or ds- or ss-[^3H]thymine-labelled DNA (100 mCi/mmol) in 10 mM NaCl, 20 mM Tris-HCl (pH 7.5), 1 mM EDTA, 1 mM dithiothreitol and 0.5 mg/ml bovine serum albumin (final concentrations) in 20 μl separate reactions. The final concentrations of the [^3H]cytosine-DNA (C) and [^3H]thymine-DNA (T) substrates were 6.5 μM and 10 μM, respectively. Release of radioactivity as a function of time was measured at 37° C. These conditions are later referred to as standard conditions. Substrate synthesis and processing of samples for scintillation counting were as described in Krokan and Wittwer (1981) Nucl. Acids Res., 9: 2599-2613. Single-stranded substrate was generated by boiling double-stranded substrate for 10 min, followed by rapid cooling on ice.
(§2) The kinetic parameters were determined using six different substrate concentrations to obtain the Km and Vmax values. Duplicate samples were incubated for 20 min using standard assay buffer conditions and substrates as specified. Km and Vmax were calculated using the computer program Enzpack, version 3.0 after the method of Wilkinson (1961) Biochem. J., 80: 324-332.

[^3H]dUMP-labelled DNA [4] = Uracil inhibition in standard U-ds assay; type: biochemical; settings: 5 mM uracil added to standard U-ds assay
Method: (§3) For measuring release of uracil from double-stranded (U-ds) or single-stranded (U-ss) DNA the various mutant enzymes (prepared as described in Example 1 and by analogous site-directed mutagenesis methods and identical expression and purification methods) were incubated with 200 ng ds- or ss-[^3H]dUMP-labelled DNA (500 mCi/mmol, 2 μM final concentration) in 20 μl separate reactions for 10 min under standard conditions as described in Example 1. For measuring release of [^3H]cytosine or [^3H]thymine, assays were performed as described in Example 1 using an incubation time of 10 min. Uracil inhibition was analysed by adding 5 mM uracil (final concentration) to a standard U-ds assay. 0 activity indicates activity below detection limit (10 pmol per mg protein per min) with 100 ng enzyme and 200 ng DNA substrate at standard conditions.

[5] = tested on: [^3H]cytosine-labelled DNA; experiment: Release of [3H]cytosine from ds or ss labelled DNA; type: biochemical; settings: for C-ds, pmol excised per min per mg protein: double-stranded cytosine DNA; for C-ds, pmol excised per min per mg protein / C-ss, pmol excised per min per mg protein: 6.5 μM, 10 min, 0 = below detection limit; for C-ss, pmol excised per min per mg protein: single-stranded cytosine DNA
Method: as §1, §3

[6] = tested on: Escherichia coli recA^+ host cells (NR8051 and NR8052); experiment: Survival of E. coli host cells expressing CDG or TDG; type: cell-based; settings: for Survival of host cells after induction by IPTG: both NR8051 and NR8052, within 5 hrs; for Survival of recA^+ host cells carrying uninduced plasmid: data not shown
[7] = tested on: E. coli ung^+ strain (NR8051); experiment: Frequency of rifampicin resistant mutations, ung+ strain; type: cell-based
Method: An overnight culture of E. coli strains NR8051 and NR8052 (both recA^+, provided by Tomas Kunkel of National Institute of Environmental Health, USA) containing plasmids pTrc99A, pTUNGΔ84, UNGΔ84Tyr147Ala and UNGΔ84Asn204Asp were prepared as described in Example 1 and grown in LB-medium with ampicillin (100 μg/ml) at 30° C. The culture was then diluted 1:20 in fresh medium and cultured for 5 hours at 37° C. Induced culture contained 1 mM IPTG in the LB-medium. To determine the number of rifampicin resistant bacteria, 100 μl of the culture were mixed with 3 ml top agarose and poured on LB plates containing 100 μg/ml rifampicin and incubated overnight at 37° C. Colonies were counted and the number of rifampicin resistant colonies per 10^8 viable cells was calculated.

[^3H]dUMP-labelled DNA [8] = Release of uracil from ds or ss [3H]dUMP-labelled DNA; type: biochemical; settings: for U-ds, pmol excised per min per mg protein: double-stranded uracil DNA, 0 = below detection limit (10 pmol per mg protein per min); for U-ds, pmol excised per min per mg protein / U-ss, pmol excised per min per mg protein: 2 μM, 10 min, 37° C.; for U-ss, pmol excised per min per mg protein: single-stranded uracil DNA, 0 = below detection limit
Method: as §1, §3

[^3H]dUMP-labelled DNA [9] = Kinetic parameters on uracil substrate; type: biochemical; settings: for Kcat: calculated from Vmax assuming Mr=25000
Method: The final concentrations of the [^3H]cytosine-DNA (C) and [^3H]thymine-DNA (T) substrates were 6.5 μM and 10 μM, respectively. Release of radioactivity as a function of time was measured at 37° C. These conditions are later referred to as standard conditions. Substrate synthesis and processing of samples for scintillation counting were as described in Krokan and Wittwer (1981) Nucl. Acids Res., 9: 2599-2613. Single-stranded substrate was generated by boiling double-stranded substrate for 10 min, followed by rapid cooling on ice.
as §2

[10] = tested on: [^3H]thymine-labelled DNA; experiment: Release of [3H]thymine from ds or ss labelled DNA; type: biochemical; settings: for T-ds, pmol excised per min per mg protein: double-stranded thymine DNA; for T-ds, pmol excised per min per mg protein / T-ss, pmol excised per min per mg protein: 10 μM, 10 min, 0 = below detection limit; for T-ss, pmol excised per min per mg protein: single-stranded thymine DNA
Method: as §1, §3

[11] = tested on: [^3H]thymine-labelled DNA; experiment: Kinetic parameters on thymine substrate; type: biochemical; settings: for Kcat: calculated from Vmax assuming Mr=25000
Method: as §1, §2

3-methyladenine = settings: Roy et al. (1994); cited from earlier work
7-methylguanine = settings: Roy et al. (1994); cited from earlier work

mouse UNG2: mouse homolog of human UNG2
dpm (^3H-uracil released) ([1]; after subtraction of background of 123 dpm): 856 dpm | Activity (dpm/area), relative specific activity ([1]; translation in rabbit reticulocyte lysates): 16784 dpm/area

B1: Asn204Asp: human UDG mutant, codon 204 Asn changed to Asp; cytosine-DNA glycosylase (CDG) (protein)
chain: MGVFCLGPWGLGRKLRTPGKGPLQLLSRLCGDHLQAIPAKKAPAGQEEPGTPPSSPLSAEQLDRIQRNKAAALLRLAARNVPVGFGESWKKHLSGEFGKPYFIKLMGFVAEERKHYTVYPPPHQVFTWTQMCDIKDVKVVILGQDPYHGPNQAHGLCFSVQRPVPPPPSLENIYKELSTDIEDFVHPGHGDLSGWAKQGVLLLDAVLTVRAHQANSHKERGWEQFTDAVVSWLNQNSNGLVFLLWGSYAQKKGSAIDRKRHHVLQTAHPSPLSVYRGFFGCRHFSKTNELLQKSGKKPIDWKEL
Cytotoxicity in recA^− background [2]: highly cytotoxic | Km ([3]; C-ds substrate): 35 µM | Kcat ([3]; C-ds substrate): 0.002 s⁻¹ | Km ([3]; C-ss substrate): 5.3 µM | Kcat ([3]; C-ss substrate): 0.0065 s⁻¹ | Inhibition 5 mM Uracil ([^3H]dUMP-labelled DNA [4]): 0% | C-ds, pmol excised per min per mg protein [5]: 3.0 × 10^2 pmol excised per min per mg protein | Preference for single stranded substrate ([5]; ss versus ds substrate): 10 fold | Survival of host cells after induction by IPTG [6]: less than 50% | Survival of recA^+ host cells carrying uninduced plasmid [6]: equal to that of the parental cell carrying plasmid pTrc99A | Factor of increase of mutation frequency compared to host cells carrying parental plasmid pTrc99A ([7]; E. coli ung^+ cells, uninduced): 8.6 | Factor of increase of mutation frequency compared to host cells carrying parental plasmid pTrc99A ([7]; induced ung^+ cells): approximately 8.9 | U-ds, pmol excised per min per mg protein ([^3H]dUMP-labelled DNA [8]): 1.7 × 10^4 pmol excised per min per mg protein | U-ss, pmol excised per min per mg protein ([^3H]dUMP-labelled DNA [8]): 1.6 × 10^5 pmol excised per min per mg protein | UDG activity remaining compared with wild type ([^3H]dUMP-labelled DNA [8]; uracil release, ds and ss): 0.04-0.16% | Km ([^3H]dUMP-labelled DNA [9]; U-ds substrate): 2.4 µM | Kcat ([^3H]dUMP-labelled DNA [9]; U-ds substrate): 0.02 s⁻¹ | Km ([^3H]dUMP-labelled DNA [9]; U-ss substrate): 2 µM | Kcat ([^3H]dUMP-labelled DNA [9]; U-ss substrate): 0.25 s⁻¹ | T-ds, pmol excised per min per mg protein [10]: 0 pmol excised per min per mg protein | T-ss, pmol excised per min per mg protein [10]: 0 pmol excised per min per mg protein

B2: Tyr147Ala (protein)
chain: B1 chain with Y147A, D204N
Cytotoxicity in recA^− background [2]: highly cytotoxic | Km ([11]; T-ds substrate): 6 µM | Kcat ([11]; T-ds substrate): 0.001 s⁻¹ | Km ([11]; T-ss substrate): 1.4 µM | Kcat ([11]; T-ss substrate): 0.00033 s⁻¹ | Inhibition 5 mM Uracil ([^3H]dUMP-labelled DNA [4]): 0% | C-ds, pmol excised per min per mg protein [5]: 0 pmol excised per min per mg protein | C-ss, pmol excised per min per mg protein [5]: 0 pmol excised per min per mg protein | Survival of host cells after induction by IPTG [6]: < 10% | Survival of recA^+ host cells carrying uninduced plasmid [6]: equal to that of the parental cell carrying plasmid pTrc99A | Factor of increase of mutation frequency compared to host cells carrying parental plasmid pTrc99A ([7]; E. coli ung^+ cells, uninduced): 39 | Mutation frequency in vivo relative to CDG activity ([7]; Escherichia coli): 10 fold | Factor of increase of mutation frequency compared to host cells carrying parental plasmid pTrc99A ([7]; induced ung^+ cells): ~94.4 | U-ds, pmol excised per min per mg protein ([^3H]dUMP-labelled DNA [8]): 2.2 × 10^4 pmol excised per min per mg protein | U-ss, pmol excised per min per mg protein ([^3H]dUMP-labelled DNA [8]): 2.2 × 10^4 pmol excised per min per mg protein | Km ([^3H]dUMP-labelled DNA [9]; U-ds substrate): 3.5 µM | Kcat ([^3H]dUMP-labelled DNA [9]; U-ds substrate): 0.0167 s⁻¹ | Km ([^3H]dUMP-labelled DNA [9]; U-ss substrate): 0.3 µM | Kcat ([^3H]dUMP-labelled DNA [9]; U-ss substrate): 0.01 s⁻¹ | T-ds, pmol excised per min per mg protein [10]: 1.3 × 10^3 pmol excised per min per mg protein | T-ss, pmol excised per min per mg protein [10]: 7.5 × 10^2 pmol excised per min per mg protein | Preference for single stranded substrate ([10]; ss versus ds substrate): decreased preference

B3: Asn204Gln: human UDG (UNGΔ84) mutant with Asn204 replaced by Gln (protein)
chain: B1 chain with D204Q
Inhibition 5 mM Uracil ([^3H]dUMP-labelled DNA [4]): 70% | C-ds, pmol excised per min per mg protein [5]: 0 pmol excised per min per mg protein | C-ss, pmol excised per min per mg protein [5]: 0 pmol excised per min per mg protein | U-ds, pmol excised per min per mg protein ([^3H]dUMP-labelled DNA [8]): 1.5 × 10^6 pmol excised per min per mg protein | U-ss, pmol excised per min per mg protein ([^3H]dUMP-labelled DNA [8]): 2.2 × 10^6 pmol excised per min per mg protein | Km ([^3H]dUMP-labelled DNA [9]; U-ds substrate): 0.4 µM | Kcat ([^3H]dUMP-labelled DNA [9]; U-ds substrate): 1.1 s⁻¹ | Km ([^3H]dUMP-labelled DNA [9]; U-ss substrate): 0.23 µM | Kcat ([^3H]dUMP-labelled DNA [9]; U-ss substrate): 1.48 s⁻¹ | T-ds, pmol excised per min per mg protein [10]: 0 pmol excised per min per mg protein | T-ss, pmol excised per min per mg protein [10]: 0 pmol excised per min per mg protein

B4: N-methylpurine-DNA glycosylase: recombinant N-methylpurine-DNA glycosylase from mouse (protein, UniProt Q04841 1-333, looked up)
DNA-3-methyladenine …: MPARGGSARPGRGALKPVSVTLLPDTEQPPFLGRARRPGNARAGSLVTGYHEVGQMPAPLSRKIGQKKQRLADSEQQQTPKERLLSTPGLRRSIYFSSPEDHSGRLGPEFFDQPAVTLARAFLGQVLVRRLADGTELRGRIVETEAYLGPEDEAAHSRGGRQTPRNRGMFMKPGTLYVYLIYGMYFCLNVSSQGAGACVLLRALEPLEGLETMRQLRNSLRKSTVGRSLKDRELCSGPSKLCQALAIDKSFDQRDLAQDDAVWLEHGPLESSSPAVVVAAARIGIGHAGEWTQKPLRFYVQGSPWVSVVDRVAEQMDQPQQTACSEGLLIVQK
Kcat for excision of 3-methyladenine (3-methyladenine): 0.013 s⁻¹ | Kcat for excision of 7-methylguanine (7-methylguanine): 0.00333 s⁻¹
